{
  "source": "paper PMC6382169",
  "about": "“Molecular features of steroid-binding antidins and their use for assaying serum progesterone” (PLoS ONE, 2019)",
  "key": {"Avd": {"target": "Avd", "parameters": "method as in PMID 17052607", "conditions": "read-out: Kd of Avd-HABA complex; cited from earlier work"}, "[1]": {"assay": "Fluorometric assay: quenching of intrinsic protein fluorescence by unconjugated ligand", "type": "binding", "conditions": "100 nM protein, pH 7, 25°C, read-out: Kd for progesterone", "protocol": "The binding affinity of the unconjugated small molecules to antidins was determined utilizing the intrinsic fluorescence originating from the aromatic amino acid residues (mainly tryptophan and tyrosine) of Avd and the fluorescence quenching caused by ligand binding. In brief, 100 nM protein samples in 50 mM NaH2PO4/Na2HPO4, 650 mM NaCl, pH 7 were excited at 280 nm, and emission was collected at 350 nm using QuantaMaster Spectrofluorometer (Photon Technology International, Inc.) with 2 nm slits. The assay was performed in a quartz cuvette with stirring at 25°C. The ligand was added to the protein sample in small aliquots (6–50 000 nM) and the fluorescence intensity was monitored after a short incubation. The dissociation constant (Kd) was determined from the resulting quenching curve using GraphPad Prism (GraphPad Software, Inc.). The data were fitted to a quadratic equation [72] for tight binding interactions, which takes ligand depletion and nonspecific binding into account (described in detail in [38]) (Fig 6)."}, "[2]": {"target": "the molecule itself", "assay": "SEC; Superdex200 Increase 5/150GL, 50 mM sodium phosphate, 650 mM NaCl, pH 7, 0.1 ml/min, 20°C; molecular weight from a standard curve of elution volumes of markers"}, "[3]": {"parameters": "method as in PMID 26550684", "conditions": "fluorometry-based assay, non-conjugated ligand, earlier study; read-out: Kd for progesterone; cited from earlier work"}, "[4]": {"target": "the molecule itself", "assay": "crystal structure; co-crystallised with progesterone, sitting drop vapour diffusion, 21°C; 2.80 Å; two monomers in the asymmetric unit, tetrameric biological unit"}, "[5]": {"assay": "Differential scanning calorimetry with biotin", "type": "binding", "conditions": "DSC, ligand three times the protein concentration", "protocol": "(§1) The thermal stability of the antidin sbAvd-7 in the presence and absence of ligands was analyzed using an automated VP-Capillary DSC System (Malvern, Microcal Inc.) essentially as described in [73]. Protein samples in the sodium phosphate buffer (50 mM, pH 7) containing 650 mM NaCl were degassed prior to the measurement. The protein concentration in the cell was 6.4 μM, and the molar concentration of the ligands (D-biotin (Biochemica, Fluka) and progesterone (Steraloids Inc., USA)) were three times higher (Fig 6)."}, "[6]": {"assay": "Differential scanning calorimetry with progesterone", "type": "binding", "conditions": "DSC, ligand three times the protein concentration", "protocol": "as §1"}, "[7]": {"assay": "Differential scanning calorimetry, no ligand", "type": "physicochemical", "conditions": "DSC, absence of ligand, 6.4 μM protein, pH 7", "protocol": "as §1"}},
  "note": "Read-outs that look alike come from different tables or passages of the source.",
  "data": [
    {"molecule": "O=C(O)c1ccccc1N=Nc1ccc(O)cc1", "note": "[HABA, 2-(4’-hydroxybenzene)azobenzoic acid]", "values": [
      {"measurement": "Kd", "setting": "Avd", "value": "~6000", "unit": "nM"}
    ]},
    {"molecule": "hbAvd-4: antidin S16A, Y33F, T40P, F72A, S73Y, S75Y, N118A; from AvLib-5, hydrocortisone panning (protein, UniProt P02701 25-152, looked up, variant S16A Y33F T40P F72A S73Y S75Y N118A) Avidin: ARKCSLTGKWTNDLGANMTIGAVNSRGEFTGTFITAVTAPSNEIKESPLHGTQNTINKRTQPTFGFTVNWKAYEYTTVFTGQCFIDRNGKEVLKTMWLLRSSVNDIGDDWKATRVGIAIFTRLRTQKE", "values": [
      {"measurement": "Kd", "setting": "[1]", "value": 39, "unit": "nM"}
    ]},
    {"molecule": "sbAvd-7 antidin (engineered chicken avidin) (designed binder, selected from the phage display library AvLib-4 (template sbAvd-1); Subcloned with the OmpA signal peptide and a C-terminal 6xHis-tag into pET101/D; source: E. coli BL21-AI or OverExpress C43(DE3), purified (Ni-NTA)) ARKCSLTGKWTNRMNHNMTIGAVNSRGEFTGTYIASLNATSNEIKESPLHGTQNTINKRTQPTFGFTVNWKFSESTAVFTGQCFIDRNGKEVLKTMWLLRSSVNDIGDDWKATRVGINIFTRLRTQKE", "values": [
      {"measurement": "stoichiometry N", "setting": "[2]", "value": 4}
    ]},
    {"molecule": "sbAvd-2 (I117Y): sbAvd-2 with stabilizing mutation I117Y; co-crystallized with progesterone, PDB:5LUR (protein) ARKCSLTGKWTNRMNHNMTIGAVNSRGEFTGTYIATVNATSNEIKESPLHGTQNTINKRTQPTFGFTVNWKFSESTTVFTGQCFIDRNGKEVLKTMWLLRSSVNDIGDDWKATRVGYNIFTRLRTQKE", "values": [
      {"measurement": "Kd", "setting": "[3]", "value": 180, "unit": "nM"}
    ]},
    {"molecule": "sbAvd-9: antidin with RMNH at 13-16, YYLP at 35-38 and T77A; from AvLib-4 (protein, UniProt P02701 25-152, looked up, variant D13R L14M G15N S16H T35Y A36Y V37L T38P T77A) Avidin: ARKCSLTGKWTNRMNHNMTIGAVNSRGEFTGTYIYYLPATSNEIKESPLHGTQNTINKRTQPTFGFTVNWKFSESTAVFTGQCFIDRNGKEVLKTMWLLRSSVNDIGDDWKATRVGINIFTRLRTQKE", "values": [
      {"measurement": "Kd", "setting": "[1]", "value": 13, "unit": "nM"}
    ]},
    {"molecule": "sbAvd-2 (I117Y) antidin (engineered chicken avidin) (designed binder, position 37 stays V; Crystallised with progesterone; also called sbAvd-2 (I117Y) mutant) ARKCSLTGKWTNRMNHNMTIGAVNSRGEFTGTYIATVNATSNEIKESPLHGTQNTINKRTQPTFGFTVNWKFSESTTVFTGQCFIDRNGKEVLKTMWLLRSSVNDIGDDWKATRVGYNIFTRLRTQKE", "values": [
      {"measurement": "stoichiometry N", "setting": "[4]", "value": 4}
    ]},
    {"molecule": "sbAvd-8: antidin with RMNH at 13-16, Y33F, A36Y, V37S, T38Y and T77A; from AvLib-4 (protein, UniProt P02701 25-152, looked up, variant D13R L14M G15N S16H Y33F A36Y V37S T38Y T77A) Avidin: ARKCSLTGKWTNRMNHNMTIGAVNSRGEFTGTFITYSYATSNEIKESPLHGTQNTINKRTQPTFGFTVNWKFSESTAVFTGQCFIDRNGKEVLKTMWLLRSSVNDIGDDWKATRVGINIFTRLRTQKE", "values": [
      {"measurement": "Kd", "setting": "[1]", "value": 11, "unit": "nM"}
    ]},
    {"molecule": "sbAvd-6: antidin with RMNH at 13-16 and VSSN at positions 35-38; from AvLib-3 (protein, UniProt P02701 25-152, looked up, variant D13R L14M G15N S16H T35V A36S V37S T38N) Avidin: ARKCSLTGKWTNRMNHNMTIGAVNSRGEFTGTYIVSSNATSNEIKESPLHGTQNTINKRTQPTFGFTVNWKFSESTTVFTGQCFIDRNGKEVLKTMWLLRSSVNDIGDDWKATRVGINIFTRLRTQKE", "values": [
      {"measurement": "Kd", "setting": "[3]", "value": 117, "unit": "nM"}
    ]},
    {"molecule": "sbAvd-2: antidin with RMNH at 13-16 and ATVN at positions 35-38; from AvLib-3 (protein, UniProt P02701 25-152, looked up, variant D13R L14M G15N S16H T35A A36T T38N) Avidin: ARKCSLTGKWTNRMNHNMTIGAVNSRGEFTGTYIATVNATSNEIKESPLHGTQNTINKRTQPTFGFTVNWKFSESTTVFTGQCFIDRNGKEVLKTMWLLRSSVNDIGDDWKATRVGINIFTRLRTQKE", "values": [
      {"measurement": "Kd", "setting": "[3]", "value": 111, "unit": "nM"}
    ]},
    {"molecule": "sbAvd-5: antidin with RMNH at 13-16 and VPHP at positions 35-38; from AvLib-3 (protein, UniProt P02701 25-152, looked up, variant D13R L14M G15N S16H T35V A36P V37H T38P) Avidin: ARKCSLTGKWTNRMNHNMTIGAVNSRGEFTGTYIVPHPATSNEIKESPLHGTQNTINKRTQPTFGFTVNWKFSESTTVFTGQCFIDRNGKEVLKTMWLLRSSVNDIGDDWKATRVGINIFTRLRTQKE", "values": [
      {"measurement": "Kd", "setting": "[3]", "value": 108, "unit": "nM"}
    ]},
    {"molecule": "sbAvd-7: antidin with RMNH at 13-16, ASLN at 35-38 and T77A; from AvLib-4, progesterone panning (protein, left off: 6xHis, C-terminal, state not stated, antidin with RMNH at 13-16, ASLN at 35-38 and T77A; from AvLib-4, progesterone panning) ARKCSLTGKWTNRMNHNMTIGAVNSRGEFTGTYIASLNATSNEIKESPLHGTQNTINKRTQPTFGFTVNWKFSESTAVFTGQCFIDRNGKEVLKTMWLLRSSVNDIGDDWKATRVGINIFTRLRTQKE", "values": [
      {"measurement": "ΔTm with biotin", "setting": "[5]", "value": 0.27, "unit": "°C"},
      {"measurement": "ΔTm with progesterone", "setting": "[6]", "value": 10.23, "unit": "°C"},
      {"measurement": "Tm", "setting": "[7]", "value": 85.84, "unit": "°C"}
    ]},
    {"molecule": "sbAvd-4: antidin with RMNH at 13-16 and PYLS at positions 35-38; from AvLib-3 (protein, UniProt P02701 25-152, looked up, variant D13R L14M G15N S16H T35P A36Y V37L T38S) Avidin: ARKCSLTGKWTNRMNHNMTIGAVNSRGEFTGTYIPYLSATSNEIKESPLHGTQNTINKRTQPTFGFTVNWKFSESTTVFTGQCFIDRNGKEVLKTMWLLRSSVNDIGDDWKATRVGINIFTRLRTQKE", "values": [
      {"measurement": "Kd", "setting": "[3]", "value": 135, "unit": "nM"}
    ]}
  ]
}
